# Test results published in patent US5844093, “Anti-EGFR single-chain Fvs and anti-EGFR antibodies” (Merck Patent Gesellschaft mit Beschrankter Haftung, dated 1998).
# Legend:
# BSA = BSA (Bos taurus (Bovine), UniProt P02769); assay: ELISA, bacterial supernatants
# Procedure: (§1) The scFvs were tested by ELISA for binding to plastic and to a panel of unrelated proteins (ovalbumin, hen egg lysozyme, cytochrome c, glyceraldehyde 3-phosphate dehydrogenase, CBA albumin, and BSA).
# (§2) Supernatants containing scFvs were diluted in PBSM and added to the plates. Bound scFvs were detected using 9E10 antibody as described above. Supernatants were also tested for binding to a panel of unrelated proteins and plastic. ELISA plates were coated overnight at 100 µg/ml with ovalbumin, hen egg lysozyme, cytochrome c, glyceraldehyde 3-phosphate dehydrogenase, murine albumin (CBA strain), and BSA. Undiluted supernatants containing 2% milk powder were added in duplicate to the coated plates and bound scFvs detected as described above.
# ovalbumin = ovalbumin (Gallus gallus (Chicken), UniProt P01012); assay: ELISA, bacterial supernatants
# Procedure: as §1, §2
# hen egg lysozyme = hen egg lysozyme (hen, UniProt P00698); assay: ELISA, bacterial supernatants
# Procedure: as §1, §2
# [1] = biological target: murine albumin (CBA strain) (murine, UniProt P07724); assay: ELISA, bacterial supernatants
# Procedure: as §1, §2
# purified EGFR = purified EGFR (human, UniProt P00533); assay: ELISA, purified EGFR, bacterial supernatants
# Procedure: Binding of scFvs to EGFR. The concentrations of scFvs in bacterial supernatants were estimated and the scFvs tested by ELISA for binding to purified EGFR.
# Antigen-binding ELISAs were carried out with EGFR-coated plates (2.5 µg/ml). Supernatants containing scFvs were diluted in PBSM and added to the plates. Bound scFvs were detected using 9E10 antibody as described above. Supernatants were also tested for binding to a panel of unrelated proteins and plastic. ELISA plates were coated overnight at 100 µg/ml with ovalbumin, hen egg lysozyme, cytochrome c, glyceraldehyde 3-phosphate dehydrogenase, murine albumin (CBA strain), and BSA. Undiluted supernatants containing 2% milk powder were added in duplicate to the coated plates and bound scFvs detected as described above.
# [2] = biological target: EGFR on EGFR-bearing tumor cells (human, UniProt P00533); assay: cell ELISA on A431 and MDA MB 468 cells, bacterial supernatants
# Procedure: The scFvs were tested by ELISA for binding to three tumor cell lines. […] Cell line SK-MEL-23 is a ganglioside-bearing melanoma cell line and was included as a negative control.
# Cells were grown to confluency in poly-D-lysine-treated 96 well tissue culture trays (Nunc). Cells were washed with DMEM and blocked at 37° C. for 2 h with PBS containing 2.5% BSA. After aspiration, supernatants were added to each well together with an equal volume of 2xYT media containing 4% milk powder and incubated at 40C for 1 h. Bound scFvs were detected as described above.
binding result (BSA),binding result (ovalbumin),binding result (hen egg lysozyme),binding result [1],binding result (purified EGFR),binding result [2],Binder
no binding,no binding,no binding,no binding,binds,binds,"scFv No. L2 12B (scFv, V domains shown) VH: QVQLQESGPELVKPGALVKISCKASGYTFTSYWMHWVKQRPGQGLEWIGEIDPSDSYTNYNQKFKGKATLTVDKSSNTAYMQLSSLTSEDSAVYYCARSDYGSSHFDYWGQGTTVTVSS VL: not shown"
no binding,no binding,no binding,no binding,,,"scFv No. L3 11D (scFv, V domains shown) VH: EVQLQQSGAELVKPGASVKLSCKASGYTFTSYWMHWVKQRPGQGLEWIGEIDPSDSYTNYNQKFKGKATLTVDKSSSTAYMQLSSLTSEDSAVYYCARSDYGSSHFDYWGQGTTVTVSS VL: not shown"
no binding,no binding,no binding,no binding,,,"scFv No. S4 2D (scFv, V domains shown) VH: EVKLQQSGPELVKPGASVKMSCKASGYAFISFVMHWVKQKPGQGLEWIGFINPYNDGTKYNEKFKDKATLTSDKSSSTAYMELSSLTSEDSAVYYCASGDYDRAMDYWGQGTTVTVSS VL: DIELTQSPTTMAASPGEKITITCSASSSISSNYLHWYQQKPGFSPKLLIYRTSNLASGVPARFSGSGSGTSYSLTIGTMEAEDVATYYCQQGSSIPRTFGGGTKLEIKR"
no binding,no binding,no binding,no binding,,,"scFv No. L2 11C (scFv, V domains shown) VH: QVQLQESGPELVRPGASVKMSCKASGYTFTTYWIHWMKQRPGQGLQWIGMIDPSNSETRLNQNFRDKATLSVDKSSNKAYMQLSSLTSEDSAIYYCARWDYGSGHFDYWGQGTTVTVSS VL: DIELTQSPASLAASVGETVTITCRASENIYYSLAWYQQKQGKSPQLLIYSASALEDGVPSRFSGSGSGTQYSLKINNMQPEDTATYFCKQTYDVPWTFGGGTKLEIKR"
